Numbering of substitutions follows the chain as printed.
B1: Polypeptide No. 207 (scFv, V domains shown)
VH: QVQLVQSGAEVKKPGASVKVSCKASGYTFTNYYMHWVRQAPGQGLEWMGWMNPNSGNTGYAQRFQGRVTMTRDTSTSTVYMELSSLRSEDTAVYYCAKSHYYYFYGMDVWGQGTTVTVSS
VL: DIQMTQSPSSLSASVGDRVTITCQASHDISKYLNWYQQKPGKAPKLLIYAASILQSGVPSRFSGSGSGTDFTLTISSLQPEDFATYYCQQSYSTPYTFGQGTKLEIKR
notes: scFv
B2: Polypeptide No. 208 (scFv, V domains shown)
VH: QVQLVQSGAEVKKPGASVKVSCKASGGTFSSRSISWVRQAPGQGLEWMGIINPSGGGTLYAQKFQGRVTMTRDTSTSTVYMELSSLRSEDTAVYYCAKDMDGWSDAFDIWGQGTTVTVSS
VL: EIVMTQSPATLSVSPGERATLSCRASQSLSNIYLAWYQQKPGQAPRLLIYDVSSRAAGIPARFSGSGSGTEFTLTISSLQSEDFAVYYCQQYATSPLTFGGGTKVEIKR
notes: scFv
B3: Polypeptide No. 212 (scFv, V domains shown)
VH: QVQLVQSGAEVKKPGSSVKVSCKASGYTFTGYYMHWVRQAPGQGLEWMGGIIPILGTANNAQKFQGRVTITADESTSTAYMELSSLRSEDTAVYYCARAPWGTFDYWGQGTLVTVSS
VL: EIVMTQSPATLSVSPGERATLSCRASQSVSSSQLAWYQQKPGQAPRLLIYDTSTRATGIPARFSGSGSGTEFTLTISSLQSEDFAVYYCQQYDNSLWTFGQGTRLEIKR
notes: scFv
B4: Polypeptide No. 213 (scFv, V domains shown)
VH: QVQLVQSGAEVKKPGASVKVSCKASGYTFSRYYMSWVRQAPGQGLEWMGWMNPNSGNTGYAQKFQGRVTMTRDTSTSTVYMELSSLRSEDTAVYYCARTRFAAQPHNWHFDLWGRGTLVTVSS
VL: DIQMTQSPSSLSASVGDRVTITCRASQSISSYLNWYQQKPGKAPKLLIYDASNLKTGVPSRFSGSGSGTDFTLTISSLQPEDFATYYCQQSYSTPLTFGPGTKVDIKR
notes: scFv
B5: Polypeptide No. 215 (scFv, V domains shown)
VH: QVQLVQSGAEVKKPGASVKVSCKASGYTFTGYRMHWVRQAPGQGLEWMGWINPNSGGTNYAQKFQGRVTMTRDTSTSTVYMELSSLRSEDTAVYYCAKGGLDWRNWYFDLWGRGTLVTVSS
VL: B4 VL with S28G, N34A, D50A, N53T, K55Q, T56S, P100G, D105E
notes: scFv
B6: Polypeptide No. 218 (scFv, V domains shown)
VH: QVQLVQSGAEVKKPGASVKVSCKASGYSFTTHYMHWVRQAPGQGLEWMGIINPSGGSTRYAQKFQGRVTMTRDTSTSTVYMELSSLRSEDTAVYYCARGSSYYYYGVDVWGKGTTVTVSS
VL: DIQMTQSPSSLSASVGDRVTITCRASQSISTWLAWYQQKPGKAPKLLIYAASSLQSGVPSRFSGSGSGTDFTLTISSLQPEDFATYYCQQAISFPLTFGGGTKVEIKR
notes: scFv
B7: Polypeptide No. 219 (scFv, V domains shown)
VH: QVQLVQSGAEVKKPGASVKVSCKASGYTFTNYYMHWVRQAPGQGLEWMGIINPSSGSASYTQKLQGRVTMTRDTSTSTVYMELSSLRSEDTAVYYCARDRSTLVPLDYWGQGTLVTVSS
VL: DIQMTQSPSSLSASVGDRVTITCRASQGIRSELSWYQQKPGKAPKLLIYKASSLESGVPSRFSGSGSGTDFTLTISSLQPEDFATYYCLQHNSYPLTFGGGTKVEIKR
notes: scFv
B8: Polypeptide No. 222 (scFv, V domains shown)
VH: QVQLVQSGAEVKKPGASVKVSCKASGYSFTAYYMHWVRQAPGQGLEWMGIINPSGGSTSYAQKFQGRVTMTRDTSTSTVYMELSSLRSEDTAVYYCARVAGINGEMAYWGQGTLVTVSS
VL: B1 VL with Q24R, H27Q, K31N, N34A, I53T, S93R, L104V
notes: scFv
B9: Polypeptide No. 223 (scFv, V domains shown)
VH: QVQLVQSGAEVKKPGASVKVSCKASGYTFTNSFIHWVRQAPGQGLEWMGIINPSGGSTSYAQKFQGRVTMTRDTSTSTVYMELSSLRSEDTAVYYCAKALERRYYYGMDVWGQGTTVTVSS
VL: B4 VL with S28G, S31N, N34A, A51G, K55E, P100Q, D105E
notes: scFv
B10: Polypeptide No. 228 (scFv, V domains shown)
VH: QVQLVQSGAEVKKPGASVKVSCKASGGTFSSHAISWVRQAPGQGLEWMGWINPGSGGTNYAQKFQGRVTMTRDTSTSTVYMELSSLRSEDTAVYYCAKDSYDFWSGYYIDYWGQGTLVTVSS
VL: B4 VL with S30Y, S31T, Y32H, D50A, N53R, K55Q, T94F, L96F
notes: scFv
B11: Polypeptide No. 229 (scFv, V domains shown)
VH: QVQLVQSGAEVKKPGASVKVSCKASGYTFTNYYMHWVRQAPGQGLEWMGIINPSGGSTSYAQKFQGRVTMTRDTSTSTVYMELSSLRSEDTAVYYCARGVGYSGYGADLWGRGTLVTVSS
VL: B1 VL with Q24R, H27Q, D28G, K31N, Y32S, N34A, I53S, Y92H, T94P
notes: scFv
B12: Polypeptide No. 231 (scFv, V domains shown)
VH: QVQLVQSGAEVKKPGASVKVSCKASGYTFTSYYIHWVRQAPGQGLEWMGLINPSGGSTTYAQSFQGRVTMTRDTSTSTVYMELSSLRSEDTAVYYCARGLGWGVVVPAAELDYWGQGTLVTVSS
VL: B4 VL with S31T, D50A, K55Q, T56S, T94S
notes: scFv
B13: Polypeptide No. 233 (scFv, V domains shown)
VH: QVQLVQSGAEVKKPGASVKVSCKASGYTFTSYYLHWVRQAPGQGLEWIGVINPSGGSTTYAQRFQGRVTMTRDTSTSTVYMELSSLRSEDTAVYYCARGIGYGGYFDYWGQGTLVTVSS
VL: DIVMTQSPLSLPVTPGEPASISCRSSQSLLHSNGYNYLDWYLQKPGQSPQLLIYAASSLQSGVPDRFSGSGSGTDFTLKISRVEAEDVGVYYCMQGLRTPHTFGGGTKVEIKR
notes: scFv
B14: Polypeptide No. 235 (scFv, V domains shown)
VH: B8 VH with S28T, A31G, V99D, A100P, I102R, N103L, M106L, A107D
VL: EIVMTQSPATLSVSPGERATLSCRASQSVSSNLAWYQQKPGQAPRLLIYGASTRATGIPARFSGSGSGTEFTLTISSLQSEDFAVYYCQQYGSSPLTFGGGTKVEIKR
notes: scFv
B15: Polypeptide No. 238 (scFv, V domains shown)
VH: QVQLVQSGAEVKKPGASVKVSCKASGYTFTIYYMHWVRQAPGQGLEWMGIINPSGGSTVYAQTFQGRVTMTRDTSTSTVYMELSSLRSEDTAVYYCARGIGSKGAFDIWGQGTMVTVSS
VL: not shown
notes: scFv
B16: Polypeptide No. 291 (scFv, V domains shown)
VH: B15 VH with I31S
VL: not shown
notes: scFv
B17: Polypeptide No. 240 (scFv, V domains shown)
VH: QVQLVQSGAEVKKPGASVKVSCKASGYTFTSYYMHWVRQAPGQGLEWMGIINPSSGSTTYALKFQGRVTMTRDTSTSTVYMELSSLRSEDTAVYYCARGLGKSAIDYWGQGTLVTVSS
VL: not shown
notes: scFv
B18: Polypeptide No. 241 (scFv, V domains shown)
VH: B6 VH with S28T, T31R, M34V, R59S, G99S, S100Y, S101H, Y102H, V107M, K112Q
VL: B6 VL with T31N, W32Y, S56G, A91S, I92Y, F94T, L96W, G100Q
notes: scFv
B19: Polypeptide No. 242 (scFv, V domains shown)
VH: QVQLVQSGAEVKKPGSSVKVSCKASGGTFSSATISWVRQAPGQGLEWMGGIIPMFGTANYAQKFQGRVTITADESTSTAYMELSSLRSEDTAVYYCARDAYGDSTWGQGTLVTVSS
VL: EIVMTQSPATLSVSPGERATLSCRASESVSSALAWYQQKPGQAPRLLIYGASTRATGIPARFSGSGSGTEFTLTISSLQSEDFAVYYCQQYGNSVTFGGGTKVEIKR
notes: scFv
B20: Polypeptide No. 243 (scFv, V domains shown)
VH: QVQLVQSGAEVKKPGSSVKVSCKASGGTFSSHAFNWVRQAPGQGLEWMGGISPMFGTPNYAQKFQGRVTITADESTSTAYMELSSLRSEDTAVYYCARAPDYGDDWYFDLWGRGTLVTVSS
VL: EIVMTQSPATLSVSPGERATLSCRASQTLTGGLLAWYQQKPGQAPRLLIYDTSSRAAGIPARFSGSGSGTEFTLTISSLQSEDFAVYYCHHYGSSPYTFGQGTKVEIKR
notes: scFv
B21: Polypeptide No. 244 (scFv, V domains shown)
VH: QVQLVQSGAEVKKPGASVKVSCKASGYTFTSYYMHWVRQAPGQGLEWMGRINPSGGSTSYAQSFQGRVTMTRDTSTSTVYMELSSLRSEDTAVYYCARVPGLYGGAIDYWGQGTLVTVSS
VL: B1 VL with Q24R, H27Q, S30R, K31N, Y32D, N34G, I53S, T94S, Y96F, L104V
notes: scFv

Assays:
[1] = molecular target: T1, huFLT3-T227 stably expressed on Ramos cells (human, UniProt P36888 27-993); experiment: FACS on cells
T1 construct: whole, on cells; also called FLT3 WT
Protocol: (§1) For FLT3, Ramos cells were engineered to stably express either the huFLT3-T227 or huFLT3-M227 variant at >200,000 receptors per cell. Parental, huFLT3-T227, and huFLT3-M227 Ramos cell lines were stained with differing levels of CellTrace Violet Cell Proliferation Kit (ThermoFisher, cat. #C34557) to barcode each cell line. Barcoded Ramos cell lines were fixed with paraformaldehyde and incubated with myc-labeled scFv periplasmic extracts and a secondary anti-myc PE-conjugated monoclonal antibody. Appropriate positive and negative controls were used. Stained cells were analyzed by flow cytometry (CytoFLEX, Beckman Coulter, Inc.) and binding was assessed by change in PE mean fluorescence intensity (MFI) of the barcoded cell populations.

[2] = molecular target: T2, huFLT3-M227 stably expressed on Ramos cells (human, UniProt P36888 27-993); experiment: FACS on cells
T2 construct: whole, on cells; also called FLT3 Mutant
Protocol: as §1

Binder	FACS geometric mean fold change over Jurkat parental [1]	FACS geometric mean fold change over Jurkat parental [2]
B1	10 to 30 fold	10 to 30 fold
B2	10 to 30 fold	10 to 30 fold
B3	10 to 30 fold	10 to 30 fold
B4	10 to 30 fold	10 to 30 fold
B5	10 to 30 fold	10 to 30 fold
B6	10 to 30 fold	10 to 30 fold
B7	10 to 30 fold	10 to 30 fold
B8	> 30 fold	> 30 fold
B9	> 30 fold	> 30 fold
B10	> 30 fold	> 30 fold
B11	> 30 fold	> 30 fold
B12	> 30 fold	> 30 fold
B13	> 30 fold	> 30 fold
B14	> 30 fold	> 30 fold
B15	> 30 fold	> 30 fold
B16	> 30 fold	> 30 fold
B17	> 30 fold	> 30 fold
B18	10 to 30 fold	10 to 30 fold
B19	> 30 fold	> 30 fold
B20	2 to 10 fold	2 to 10 fold
B21	> 30 fold	> 30 fold

Source: US20240101668A1 (WUGEN, published 2024)
